In patent US20040018971A1 (published 2004):

Assays:
HLA-DR7 (DRB1*0701) = biological target: T1, HLA-DR7 (DRB1*0701) (human); assay: competition with 125I-labelled probe peptide on purified HLA-DR, gel filtration; IC50 of standard peptide / IC50 of test peptide
T1 construct: Purified HLA class II molecule

HLA-DR1 (DRB1*0101) = HLA-DR1 (DRB1*0101) (human); assay: as above
HLA-DR4w4 (DRB1*0401) = biological target: T2, HLA-DR4w4 (DRB1*0401) (human); assay: as above
T2 construct: Purified HLA class II molecule

[1] = biological target: T3, HLA-A*0301 (purified HLA class I molecule) (human); assay: inhibition of 125I probe peptide binding to purified HLA; ratio to standard peptide
T3 construct: also called A3

[2] = biological target: HLA-A*3301 (purified HLA class I molecule) (human); assay: as above
[3] = biological target: HLA-A*1101 (purified HLA class I molecule) (human); assay: as above
[4] = biological target: HLA-A*6801 (purified HLA class I molecule) (human); assay: as above
[5] = biological target: HLA-A*3101 (purified HLA class I molecule) (human); assay: as above
[6] = biological target: HLA-DR1 (DRB1*0101), purified HLA class II molecule (human); assay: competition with 125I-labelled probe peptide, purified HLA-DR
HLA-A*6801 = HLA-A*6801 (human); assay: competition with 125I-labelled standard peptide for purified HLA; gel filtration
[7] = biological target: HLA-DR7 (DRB1*0701), purified HLA class II molecule (human); assay: competition with 125I-labelled probe peptide, purified HLA-DR
[8] = biological target: HLA-DR4w4 (DRB1*0401), purified HLA class II molecule (human); assay: as above
HLA-A*0203 [9] = biological target: HLA-A*0203 (human); assay: competition with 125I probe peptide for purified HLA
HLA-A*0206 [10] = biological target: HLA-A*0206 (human); assay: as above
HLA-A*0202 [11] = biological target: HLA-A*0202 (human); assay: as above
HLA-A*6802 [12] = biological target: HLA-A*6802 (human); assay: as above
[13] = biological target: T3, HLA-A*0301 (purified HLA class I …); assay: inhibition of 125I probe peptide binding to purified HLA; ratio to standard peptide; minus sign not explained
[14] = biological target: HLA-A*1101 (purified HLA class I molecule) (human); assay: as above
HLA-A*0202 [15] = biological target: HLA-A*0202 (human); assay: competition with 125I-labelled probe peptide for purified HLA, gel filtration
HLA-A*0201 = biological target: T4, HLA-A*0201 (human); assay: as above
T4 construct: also called HLA-A2.1

HLA-A*0206 [16] = biological target: HLA-A*0206 (human); assay: as above
HLA-A*6802 [17] = biological target: HLA-A*6802 (human); assay: as above
HLA-A*0203 [18] = biological target: HLA-A*0203 (human); assay: as above

DMKLRLPASPETHLD (also called Her2/neu.30) [HER2/neu peptide DMKLRLPASPETHLD (position 30)] showed a relative binding ratio (HLA-DR7 (DRB1*0701)) of -0.0013 ratio, a relative binding ratio (HLA-DR1 (DRB1*0101)) of 0.001 ratio and a relative binding ratio (HLA-DR4w4 (DRB1*0401)) of -0.0025 ratio.

CVNCSQFLR (also called Her2/neu.528) [HER2/neu peptide, position 528, 9 amino acids] was tested, and the relative binding ratio [1] was 0.0015 ratio (IC50 standard / IC50 test), the relative binding ratio [2] was 0.58 ratio (IC50 standard / IC50 test) and the relative binding ratio [3] was 0.031 ratio (IC50 standard / IC50 test). The relative binding ratio [4] was 0.44 ratio (IC50 standard / IC50 test) and the relative binding ratio [5] was 0.53 ratio (IC50 standard / IC50 test).

For QPDVRPQPPSPREGP (also called Her2/neu.1142) [HER2/neu DR supermotif exemplary 15-mer QPDVRPQPPSPREGP (position 1142)], the relative binding ratio [6] was 0.0007 ratio (IC50 standard / IC50 test).

Binder MVLESILRR [Her2/neu.889.V2] has an IC50 (HLA-A*6801) of 22 nM.

VCPLHNQEVTAEDGT (also called Her2/neu.314) [HER2/neu DR supermotif exemplary 15-mer VCPLHNQEVTAEDGT (position 314)] was tested, and the relative binding ratio [7] was -0.0013 ratio (IC50 standard / IC50 test), the relative binding ratio [8] was -0.0025 ratio (IC50 standard / IC50 test) and the relative binding ratio [6] was -0.0004 ratio (IC50 standard / IC50 test).

QLMPYGCLL [Her2/neu.799 QLMPYGCLL] gave an IC50 (HLA-A*0203 [9]) of 114 nM, an IC50 (HLA-A*0206 [10]) of 712 nM and an IC50 (HLA-A*0202 [11]) of 977 nM.

With DLSYMPIWK (also called Her2/neu.607 (9-mer)) [HER2/neu peptide, position 607, 9 amino acids] the relative binding ratio [1] was 0.0005 ratio (IC50 standard / IC50 test), the relative binding ratio [2] was 0.088 ratio (IC50 standard / IC50 test) and the relative binding ratio [3] was 0.01 ratio (IC50 standard / IC50 test). For the same binder, the relative binding ratio [4] was 0.031 ratio (IC50 standard / IC50 test) and the relative binding ratio [5] was 0.0002 ratio (IC50 standard / IC50 test).

Work on ALCRWGLLLA [Her2/neu.5 (10-mer) ALCRWGLLLA] yielded an IC50 (HLA-A*0203 [9]) of 12 nM, an IC50 (HLA-A*0206 [10]) of 1950 nM and an IC50 (HLA-A*0202 [11]) of 1960 nM. It also gave an IC50 (HLA-A*6802 [12]) of 2500 nM.

With GMEHLREVR (also called Her2/neu.346 (9-mer)) [HER2/neu peptide, position 346, 9 amino acids] the relative binding ratio [13] was -0.0002 ratio (IC50 standard / IC50 test) and the relative binding ratio [14] was -0.0002 ratio (IC50 standard / IC50 test).

With DSECRPRFR (also called Her2/neu.962 (9-mer)) [HER2/neu peptide, position 962, 9 amino acids] the relative binding ratio [13] was -0.0002 ratio (IC50 standard / IC50 test) and the relative binding ratio [14] was -0.0002 ratio (IC50 standard / IC50 test).

Binder SLISAVVGV [Her2/neu.653.L2V9] has an IC50 (HLA-A*0202 [15]) of 10 nM, an IC50 (HLA-A*0201) of 7.1 nM and an IC50 (HLA-A*0206 [16]) of 20 nM. The IC50 (HLA-A*6802 [17]) was 110 nM and the IC50 (HLA-A*0203 [18]) was 16 nM.

ETELVEPLTPSGAMP (also called Her2/neu.693) [HER2/neu peptide ETELVEPLTPSGAMP (position 693)] was tested, and the relative binding ratio (HLA-DR7 (DRB1*0701)) was -0.0013 ratio, the relative binding ratio (HLA-DR1 (DRB1*0101)) was 0.006 ratio and the relative binding ratio (HLA-DR4w4 (DRB1*0401)) was -0.0025 ratio.

VLIQRNPQV [Her2/neu.153V9] was tested, and the IC50 (HLA-A*0202 [15]) was 768 nM, the IC50 (HLA-A*0201) was 55 nM and the IC50 (HLA-A*0206 [16]) was 385 nM. It also gave an IC50 (HLA-A*0203 [18]) of 135 nM.

Work on QLFEDNYALA [Her2/neu.106 (10-mer) QLFEDNYALA] yielded an IC50 (HLA-A*0203 [9]) of 9.1 nM, an IC50 (HLA-A*0206 [10]) of 218 nM and an IC50 (HLA-A*0202 [11]) of 662 nM. The IC50 (HLA-A*6802 [12]) was 74 nM.

With CAGGCARCK (also called Her2/neu.220 (9-mer)) [HER2/neu peptide, position 220, 9 amino acids] the relative binding ratio [13] was -0.0002 ratio (IC50 standard / IC50 test) and the relative binding ratio [14] was -0.0002 ratio (IC50 standard / IC50 test).

For CSPMCKGSR (also called Her2/neu.195 (9-mer)) [HER2/neu peptide, position 195, 9 amino acids], the relative binding ratio [13] was -0.0008 ratio (IC50 standard / IC50 test) and the relative binding ratio [14] was -0.0001 ratio (IC50 standard / IC50 test).

For TQLFEDNYALAVLDN (also called Her2/neu.105) [HER2/neu DR supermotif exemplary 15-mer TQLFEDNYALAVLDN (position 105)], the relative binding ratio [7] was 0.016 ratio (IC50 standard / IC50 test), the relative binding ratio [8] was -0.0025 ratio (IC50 standard / IC50 test) and the relative binding ratio [6] was 0.053 ratio (IC50 standard / IC50 test).

For ESMPNPEGR [HER2/neu peptide, position 280, 9 amino acids], the relative binding ratio [14] was -0.0002 ratio (IC50 standard / IC50 test) and the relative binding ratio [1] was 0.0003 ratio (IC50 standard / IC50 test).
